{Biotin} = biotin attached at the strand end; {Cy3} = Cy3 fluorescent dye
B1: RNA nanoparticles: RNA nanoparticles self-assembled in Embodiment 1 from strands SEQ ID NO:52-54, C/U 2′F, 5′Biotin, 5′CY3 (nucleic acid)
chain 1: CGCGCGCCCACCAGCGUUCCGGGCGCCGC
chain 2: GCGGCGCCCGGUUCGCCGCCAGGCGGC
chain 3: GCCGCCAGGCGGCCAUAGCGGUGGGCGCGCG
modifications: chain 1: 2'-fluoro at CU, RNA at AG, 5' {Biotin}, backbone not given here; chain 2: 2'-fluoro at CU, RNA at AG, 5' {Biotin}, backbone not given here; chain 3: 2'-fluoro at CU, RNA at AG, 5' {Cy3}, backbone not given here; three-strand self-assembled RNA nanoparticle

What was measured:
[1] = tested on: HepG2 cells; experiment: Cytotoxicity of RNA nanoparticles in HepG2 cells (CellTiter-Glo); type: cell-based; conditions: 200 nM, 72 hours, CTG
Procedure: (1) A RPMI1640+10% FBS+1% PS medium was used to culture HepG2 cells under 37 DEG C. and 5% CO2.
(2) The HepG2 cells were digested by a trypsin, 100 μL of 5000 cells per well was inoculated in a 96-well plate, and cultured overnight under 37 DEG C. and 5% CO2.
(3) Cell supernatant was removed on the second day, a sample to be tested was diluted with the culture medium, 200 nM of RNAh, RNAh-Biotine, RNAh-Dox and Dox were respectively added, 100 μL each was added to the plated cells, and each sample was repeated for 4 times.
(4) After being cultured for 72 hours, 100 μL of a CTG reagent was added to each well, shaking was performed for 2 min, and standing was performed at a room temperature for 10 minutes, and a whole process was performed in the dark.
(5) Finally Soft Max ProS software was used for reading.

[2] = Doxorubicin loading rate, physical loading; type: physicochemical; conditions: mass ratio doxorubicin:RNA nanoparticles 1:1, 55 DEG C., 3 h
Procedure: 1) enabling a mass ratio of the doxorubicin and the RNA nanoparticles to be 1:1;
2) weighing 0.1 mg of a doxorubicin original drug and dissolving in 50 μL of DMSO, and then adding 300 μL of the PBS and mixing uniformly;
3) enabling RNA particles to be dissolved in 200 μL of the […] treated water, and adding into the doxorubicin-PBS mixed solution, uniformly mixing, and adjusting a pH to be about 7.5;
4) putting the whole solution in a water bath kettle at 55 DEG C., and reacting for 3 h;
5) after the reaction, directly adding 10 times of anhydrous ethanol in volume, and precipitating at 4 DEG C. for 4 h; and
6) washing for 4 times with 10 times of the anhydrous ethanol, and transferring to 1.5 mL of a EP tube. Subsequently, measuring a loading rate, herein the measuring method is the same as above, and a measuring result is that a doxorubicin loading rate is 15.5.

[3] = Serum stability of RNA nanoparticles, RPMI 1640 with 10% serum, non-denaturing gel; type: in vitro ADME; conditions: for RNA quantification result, RNA nanoparticle: RPMI 1640 with 10% serum, 37 DEG C.
Procedure: (1) 350 μl of the PBS was absorbed into a RNA nanoparticle sample, and adequately mixed uniformly.
(2) 2 μM of the RNA nanoparticles were incubated in the RPMI 1640 medium containing 10% serum.
(3) After being incubated at 37 DEG C. for 10 min, 1 h, 12 h, and 36 h, samples were taken respectively.
(4) After NanoDrop used for quantification, 200 ng of the RNA nanoparticlesnanoparticle were taken, the same volume of Tris-Glycine SDS sample buffer solution (2×) was added, and adequately mixed uniformly.
(5) A piece of Novex™ 8% Tris-Glycine Mini gel was taken, the samples were loaded in order, a program was set in 200 V, 30 min, and electrophoresis was started.
(6) After the electrophoresis was over, G250 staining was performed, it was placed on a horizontal shaker for 30 min to 1 h, and pictures were taken for imaging.

| Molecule | HepG2 cell proliferation (%) Mean ± SEM (n = 4) [1] [%] | doxorubicin loading rate [2] | serum stability (non-denaturing gel bands) ([3]; 1640 medium of 10% FBS, 10 min, 1 h, 12 h, 36 h at 37 DEG C.) | RNA quantification result, RNA nanoparticle ([3]; incubation 10 min) [ng/µL] | RNA quantification result, RNA nanoparticle ([3]; incubation 1 h) [ng/µL] | RNA quantification result, RNA nanoparticle ([3]; incubation 12 h) [ng/µL] | RNA quantification result, RNA nanoparticle ([3]; incubation 36 h) [ng/µL] | RNA quantification result, RNA nanoparticle ([3]; incubation time 0) [ng/µL] |
| --- | --- | --- | --- | --- | --- | --- | --- | --- |
| COc1cccc2c1C(=O)c1c(O)c3c(c(O)c1C2=O)C[C@@](O)(C(=O)CO)C[C@@H]3O[C@H]1C[C@H](N)[C@H](O)[C@H](C)O1 [doxorubicin] | 39.56 |  |  |  |  |  |  |  |
| B1 |  | 15.5 | relatively stable | 193.5 | 176.0 | 175.5 | 214.8 | 178.8 |
